For assay [1], the target named is T1, human CD33 on CHO-K1 cells (CHO-K1-human CD33) (human, UniProt P20138 18-364).
T1 construct: whole, on cells; stably transfected CHO-K1 clones; also called CHO-K1-hCD33-B8; CHO-K1-human CD33 B8
Briefly: FACS, CHO-K1-human CD33 cells. As for the experimental part: (§1) The desired cells were expanded to a logarithmic growth phase in a T-75 cell culture flask. For adherent cells CHO-K1, the culture medium was removed by pipetting, and the cells were washed twice with a PBS buffer, digested with trypsin, and washed twice with a PBS buffer again after the digestion was stopped. For suspension cells U937, the medium supernatant was discarded by direct centrifugation, and the cell pellet was washed twice with PBS, and then incubated with a buffer containing human Fc Block (purchased from BD, Cat. No. 564220) for 15 min. After the cells obtained in the last step were subjected to cell counting, the cell pellet was resuspended to 2×10⁶ cells/mL with a blocking solution [PBS+2% (w/w) BSA] and added to a 96-well FACS reaction plate at 50 μL/well. The VHH-Fc antibody (a sample to be tested) was added at 50 μL/well, and the plate was incubated on ice for 2 h. […] After the plate was centrifuged and washed 5 times with a PBS buffer, the results were assayed and analyzed by FACS (FACS Canto™, purchased from BD Biosciences), so as to obtain the mean fluorescence intensity (MFI) of cells. Then, analysis was performed by software (GraphPad Prism8), data were fitted, and EC50 values were calculated.
On the technique in general: In flow cytometry, cells or beads pass a laser one at a time.

Assay [2] addresses T1, human CD33 on CHO-K1 cells …. Put plainly: FACS, CHO-K1-human CD33 cells. The method, then:
as §1
The source holds these as a separate data set.

For assay [3], the target named is T2, human CD33-His (extracellular domain Asp 18-His 259) (human, UniProt P20138 18-259).
T2 construct: range 18-259; bought protein; also called hCD33-his; human CD33 protein; not shown: His tag
Briefly: ELISA on coated human CD33-his. The method, then: In order to assay the binding activity of VHH-Fc to human CD33 protein, a human CD33-his protein (purchased from ACROBiosystems, Cat. No. CD3-H5226) was diluted with PBS to make a final concentration of 2 μg/mL, and then added into a 96-well ELISA plate at 100 μL/well. The plate was sealed with a plastic film and incubated at 4° C. overnight, washed twice with PBS the next day, and a blocking solution [PBS+2% (w/w) BSA] was added for blocking at room temperature for 2 h. The blocking solution was discarded, and VHH-Fc antibody or negative control antibody serially diluted from 100 nM was added at 50 μL/well. After incubation at 37° C. for 2 h, the plate was washed 3 times with PBS. A secondary antibody labeled with HRP (horseradish peroxidase) (purchased from Sigma, Cat. No. A0170) was added. After incubation for 1 h at 37° C., the plate was washed 5 times with PBS. A TMB substrate was added at 50 μL/well. After incubation at room temperature for 10 min, a stop solution (1.0 N HCl) was added at 50 μL/well. The OD450 nm values were read on an ELISA plate reader (Multimode Plate Reader, EnSight, purchased from Perkin Elmer). The assay results for the binding of the VHH-Fc to hCD33-his by ELISA are shown in FIGS. 7A and 7B and Tables 11 and 12. […] The IgG control was hIgG1, and the data in the table are OD450 nm values. […]
Background: ELISA stands for enzyme-linked immunosorbent assay.

For assay [4], the target named is T2, human CD33-His (extracellular domain …). Briefly: competitive ELISA vs coated S006-NB146-69 3ug/mL; soluble 25ug/ml.
Assay [5] has as its target T3, human CD33-his protein (human, UniProt P20138 18-259).
T3 construct: range 18-259; bought protein; also called hCD33-his; recombinant human CD33-his; not shown: His tag
Put plainly: competition ELISA, coated human CD33-his, vs Biotin-C33B904 at EC80; antibody 31.25 nM. As for the experimental part:
ELISA plates were coated with 2 μg/mL human CD33-his protein according to the method in Example 5.1; the Biotin-C331B904 antibody was subjected to a gradient dilution from 15 μg/mL, and EC80 values (0.18 μg/mL) were calculated. ELISA plates were coated with 2 μg/mL human CD33-his protein; starting from 40 μg/mL, the VHH antibodies to be tested were diluted in a 1:2 dilution ratio to obtain seven concentrations and added to the ELISA plates, and then Biotin-C331904 antibodies with the EC80 concentrations were added for incubation for 2 h. The plates were washed 5 times with PBS and then […] (purchased from Sigma, Cat. No. S2438) were added for incubation for 1 h, and the plates were washed 5 times. A TMB substrate was added at 50 μL/well and incubated at room temperature for 10 min, then a stop solution (1.0 M HCl) was added at 50 μL/well. OD_{450 nm} values were read using an ELISA plate reader (Insight, purchased from PerkinElmer). Then, analysis was performed by software (GraphPad Prism8), and data were fitted for curve plotting. The results are shown in FIGS. 13A-13B and Tables 28 and 29.

Assay [6] deals with T3, human CD33-his protein. Briefly: competition ELISA, coated human CD33-his, vs Biotin-C33B904 at EC80; antibody 125.00 nM. As for the experimental part: The plate was sealed with a plastic film and incubated at 4° C. overnight, washed twice with PBS the next day, and a blocking solution [PBS+2% (w/w) BSA] was added for blocking at room temperature for 2 h. The blocking solution was discarded, and VHH-Fc antibody or negative control antibody serially diluted from 100 nM was added at 50 μL/well. After incubation at 37° C. for 2 h, the plate was washed 3 times with PBS. A secondary antibody labeled with HRP (horseradish peroxidase) (purchased from Sigma, Cat. No. A0170) was added. After incubation for 1 h at 37° C., the plate was washed 5 times with PBS. A TMB substrate was added at 50 μL/well. After incubation at room temperature for 10 min, a stop solution (1.0 N HCl) was added at 50 μL/well. The OD450 nm values were read on an ELISA plate reader (Multimode Plate Reader, EnSight, purchased from Perkin Elmer). The assay results for the binding of the VHH-Fc to hCD33-his by ELISA are shown in FIGS. 7A and 7B and Tables 11 and 12. […] The IgG control was hIgG1, and the data in the table are OD450 nm values.
ELISA plates were coated with 2 μg/mL human CD33-his protein according to the method in Example 5.1; the Biotin-C331B904 antibody was subjected to a gradient dilution from 15 μg/mL, and EC80 values (0.18 μg/mL) were calculated. […] OD_{450 nm} values were read using an ELISA plate reader (Insight, purchased from PerkinElmer). […]

Like-named read-outs stand apart in the source and are kept apart here.

T1 sequence (P20138 18-364): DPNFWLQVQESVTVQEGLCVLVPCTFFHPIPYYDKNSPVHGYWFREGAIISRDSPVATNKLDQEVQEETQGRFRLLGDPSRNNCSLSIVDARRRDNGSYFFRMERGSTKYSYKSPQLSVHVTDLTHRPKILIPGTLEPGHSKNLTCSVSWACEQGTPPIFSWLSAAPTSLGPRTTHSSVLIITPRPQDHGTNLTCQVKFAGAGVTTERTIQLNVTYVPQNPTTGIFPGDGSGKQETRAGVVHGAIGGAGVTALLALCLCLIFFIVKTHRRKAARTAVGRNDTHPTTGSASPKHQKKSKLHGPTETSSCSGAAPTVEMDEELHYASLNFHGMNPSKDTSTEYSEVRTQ
T3 sequence (P20138 18-259 limits assumed): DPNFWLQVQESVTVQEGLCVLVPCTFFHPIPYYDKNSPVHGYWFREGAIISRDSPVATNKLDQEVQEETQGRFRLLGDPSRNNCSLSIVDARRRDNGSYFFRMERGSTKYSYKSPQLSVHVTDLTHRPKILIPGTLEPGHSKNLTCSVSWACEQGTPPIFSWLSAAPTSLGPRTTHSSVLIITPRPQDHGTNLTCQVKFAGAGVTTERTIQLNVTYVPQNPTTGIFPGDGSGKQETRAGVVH
T2 sequence (P20138 18-259 limits assumed): as above

B1: C33B904 hIgG1 (antibody, V domains shown)
VH: EVQLVESGGGLVQPGRSLRLSCAASGFTFDDYAMHWVRQAPGKGLEWVSGIGWSGGSIVYADSVKGRFTISRDNAKNSLYLQMNSLRAEDTALYYCAKDSPYGDFFDYWGQGTLVTVSS
VL: DIVMTQSPDSLAVSLGERATINCKSSQTVFYSSNNKNYLAWYQQKPGQPPKLLISWASTRKSGVPDRFSGSGSGTDFTLTVSSLQAEDVAVYYCQHYYSTPYTFGQGTKLEIKR
notes: intact human IgG1; variable regions from US20190382481A1; also called C33B3904; C331B904
On to B1, for which the results for the EC50 in assay [1] and in assay [2] were 12.5 nM and 4.53 nM, respectively. Further, the results for the “Max MFI” value in assay [1] and in assay [2] were 15000 MFI and 12400 MFI, respectively. In assay [3], the EC50 (read off the curve) (commonly the concentration that produces a half-maximal response) is approximately 0.3 nM. Moreover, in assay [4], the inhibition rate stood at 99%.

B2: C33B904 (antibody, human IgG1, kappa, V domains shown)
VH: EVQLVESGGGLVQPGRSLRLSCAASGFTFDDYAMHWVRQAPGKGLEWVSGIGWSGGSIVYADSVKGRFTISRDNAKNSLYLQMNSLRAEDTALYYCAKDSPYGDFFDYWGQGTLVTVSS
VL: DIVMTQSPDSLAVSLGERATINCKSSQTVFYSSNNKNYLAWYQQKPGQPPKLLISWASTRKSGVPDRFSGSGSGTDFTLTVSSLQAEDVAVYYCQHYYSTPYTFGQGTKLEIKR
notes: control antibody, intact human IgG1 form; variable regions from US20190382481A1; also called C33B904 hIgG1; C331B904
In the case of B2, the “OD450 (Biotin-C33B904 signal)” value with human CD33-his protein [5] was 0.66; with human CD33-his protein [6], 0.16.

(Values after patent publication US20240124575A1 (SIMCERE ZAIMING PHARMACEUTICAL, published 2024).)
